Tests used:
[1] = target: CD4-HA-CIBN-2xMKII-NNES-heLOV-GAL4 (FLARE transcription factor component) (Arabidopsis thaliana); assay: cell-based or functional assay
[2] = target: B2Ar-heLOV-TEVcs-Gal4-V5 (SPARK transcription factor component) (UniProt P07550); assay: cell-based or functional assay
[3] = target: MBP-TEVcs(ENLYFQ/M)-eGFP [MBP: P0AEX9]
[4] = target: MBP-TEVcs(ENLYFQ/S)-eGFP [MBP: P0AEX9]; assay: Michaelis-Menten fit of the in-gel fluorescence cleavage assay, purified protease with the substrate titrated; the filing defines affinity as Km
[5] = target: MBP-TEVcs(ENLYFQ/S)-eGFP [MBP: P0AEX9]

Molecule	turnover rate (kapp) [3]	turnover rate (kapp), fold against wild-type TEVΔ [3]	also measured
eGFP-CaM-TEVΔ/S219V + S153N (FLARE protease component with uTEV1Δ) (enzyme)			FLARE mCherry reporter, high/low Ca+2 signal ratio [1]: 12; FLARE mCherry reporter, signal-to-background ratio [1]: 12.2
HA-arrestin-TEVΔ/S153N (SPARK protease component with uTEV1Δ) (enzyme)			SPARK mCherry reporter, +/-agonist signal ratio [2]: 20.7
wild-type TEVΔ (TEVΔ-S219V), purified with His tag from bacteria (protein) HHHHHHGESLFKGPRDYNPISSTICHLTNESDGHTTSLYGIGFGPFIITNKHLFRRNNGTLLVQSLHGVFKVKNTTTLQQHLIDGRDMIIIRMPKDFPPFPQKLKFREPQREERICLVTTNFQTKSMSSMVSDTSCTFPSSDGIFWKHWIQTKDGQCGSPLVSTRDGFIVGIHSASNFTNTNNYFTSVPKNFMELLTNQEAQQWVSGWRLNADSVLWGGHKVFMV	0.01 s⁻¹		
uTEV2Δ (TEVΔ/S219V + T30A + S153N), purified with His tag from bacteria (protein) HHHHHHGESLFKGPRDYNPISSTICHLTNESDGHTASLYGIGFGPFIITNKHLFRRNNGTLLVQSLHGVFKVKNTTTLQQHLIDGRDMIIIRMPKDFPPFPQKLKFREPQREERICLVTTNFQTKSMSSMVSDTSCTFPSSDGIFWKHWIQTKDGQCGNPLVSTRDGFIVGIHSASNFTNTNNYFTSVPKNFMELLTNQEAQQWVSGWRLNADSVLWGGHKVFMV	0.062 s⁻¹	5.4- and 6.2-fold higher than wild-type	
uTEV1Δ (TEVΔ/S219V + S153N), purified with His tag from bacteria (protein) HHHHHHGESLFKGPRDYNPISSTICHLTNESDGHTTSLYGIGFGPFIITNKHLFRRNNGTLLVQSLHGVFKVKNTTTLQQHLIDGRDMIIIRMPKDFPPFPQKLKFREPQREERICLVTTNFQTKSMSSMVSDTSCTFPSSDGIFWKHWIQTKDGQCGNPLVSTRDGFIVGIHSASNFTNTNNYFTSVPKNFMELLTNQEAQQWVSGWRLNADSVLWGGHKVFMV	0.054 s⁻¹	5.4- and 6.2-fold higher than wild-type	
uTEV3, full-length (HIS6-MBP-TEV I138T S153N T180A, S219V) (protein) GESLFKGPRDYNPISSTICHLTNESDGHTTSLYGIGFGPFIITNKHLFRRNNGTLLVQSLHGVFKVKNTTTLQQHLIDGRDMIIIRMPKDFPPFPQKLKFREPQREERICLVTTNFQTKSMSSMVSDTSCTFPSSDGTFWKHWIQTKDGQCGNPLVSTRDGFIVGIHSASNFTNTNNYFASVPKNFMELLTNQEAQQWVSGWRLNADSVLWGGHKVFMVKPEEPFQPVKEATQLMNELVYSQ			fold improvement of Km against wild-type TEV [4]: Km improved by 3-fold; kcat/Km, fold against wild-type TEV [5]: a 2.8-fold increase in kcat/Km

Source: US20230067225A1
